Reference: patent US20240309070A1

Assays:
human insulin (human) = human insulin (human) (UniProt P01308); assay: polyreactivity ELISA, insulin coated, antibody 10 µg/mL, signal normalised to non-coated well
[1] = target: tEGFR (truncated EGFR) on vector-only transduced T cells (Homo sapiens (Human)) (UniProt P00533)
[2] = target: Western Reserve B5 on cells infected with VVddeGFP Western Reserve virus (Vaccinia virus, Western Reserve strain) (UniProt Q01227); assay: flow cytometry, HT29 cells infected with WR VV (negative control)
[3] = target: Western Reserve B5 on cells infected with VVddeGFP Western Reserve virus (Vaccinia virus, Western Reserve strain) (UniProt Q01227); assay: flow cytometry, SKOV3 cells infected with WR VV (negative control)
[4] = target: Copenhagen B5 on cells infected with VVCopenhagen (YFP) virus (Vaccinia virus, Copenhagen strain) (UniProt P21115); assay: flow cytometry, HT29 cells infected with Copenhagen VV (negative control)

Infliximab (antibody)
Polyreactivity Insulin Score (human insulin (human)): 2.9 score

VV B5 monomer protein (Wyeth Vaccinia strain B5 with C-terminal AVI tag and HIS6 tag) (from UniProt O57254 18-279)
CAR+ % Parent [1]: 1.54%

human IgG1k isotype control (antibody)
EC50 [2]: 20 pM
EC50 [3]: 10 pM
EC50 [4]: 10 pM
